Test results from publication PMC7367873, “Dissecting the sequence determinants for dephosphorylation by the catalytic subunits of phosphatases PP1 and PP2A” (Nature Communications, 2020).
Blank lines part the entries; values can stand above or below the molecule they belong to.

How the values were obtained:
[1] = test system: GFP-14-3-3β and its binding proteins; assay: GFP-14-3-3β co-IP with LC-MS/MS label-free quantification, untreated versus PP1c-treated; design: species or system human
GFP-14-3-3β = GFP-14-3-3β co-IP with LC-MS/MS, untreated GFP-14-3-3β versus GFP control (14-3-3 interactome); type: binding, human
[2] = pairwise comparison PP1 vs untreated
[3] = pairwise comparison untreated vs GFP

B1: AP2A1 (protein, UniProt O95782 1-977, looked up)
AP-2 complex subunit alpha-1: MPAVSKGDGMRGLAVFISDIRNCKSKEAEIKRINKELANIRSKFKGDKALDGYSKKKYVCKLLFIFLLGHDIDFGHMEAVNLLSSNKYTEKQIGYLFISVLVNSNSELIRLINNAIKNDLASRNPTFMCLALHCIANVGSREMGEAFAADIPRILVAGDSMDSVKQSAALCLLRLYKASPDLVPMGEWTARVVHLLNDQHMGVVTAAVSLITCLCKKNPDDFKTCVSLAVSRLSRIVSSASTDLQDYTYYFVPAPWLSVKLLRLLQCYPPPEDAAVKGRLVECLETVLNKAQEPPKSKKVQHSNAKNAILFETISLIIHYDSEPNLLVRACNQLGQFLQHRETNLRYLALESMCTLASSEFSHEAVKTHIDTVINALKTERDVSVRQRAADLLYAMCDRSNAKQIVSEMLRYLETADYAIREEIVLKVAILAEKYAVDYSWYVDTILNLIRIAGDYVSEEVWYRVLQIVTNRDDVQGYAAKTVFEALQAPACHENMVKVGGYILGEFGNLIAGDPRSSPPVQFSLLHSKFHLCSVATRALLLSTYIKFINLFPETKATIQGVLRAGSQLRNADVELQQRAVEYLTLSSVASTDVLATVLEEMPPFPERESSILAKLKRKKGPGAGSALDDGRRDPSSNDINGGMEPTPSTVSTPSPSADLLGLRAAPPPAAPPASAGAGNLLVDVFDGPAAQPSLGPTPEEAFLSELEPPAPESPMALLADPAPAADPGPEDIGPPIPEADELLNKFVCKNNGVLFENQLLQIGVKSEFRQNLGRMYLFYGNKTSVQFQNFSPTVVHPGDLQTQLAVQTKRVAAQVDGGAQVQQVLNIECLRDFLTPPLLSVRFRYGGAPQALTLKLPVTINKFFQPTEMAAQDFFQRWKQLSLPQQEAQKIFKANHPMDAEVTKAKLLGFGSALLDNVDPNPENFVGAGIIQTKALQVGCLLRLEPNAQAQMYRLTLRTSKEPVSRHLCELLAQQF
Difference (log2), PP1 vs untreated [1, 2]: -0.1358 log2
Difference (log2), untreated vs GFP (GFP-14-3-3β; [3]): 1.114 log2

B4: GEMIN4 (protein, UniProt P57678 1-1058, looked up)
Gem-associated protein 4: MDLGPLNICEEMTILHGGFLLAEQLFHPKALAELTKSDWERVGRPIVEALREISSAAAHSQPFAWKKKALIIIWAKVLQPHPVTPSDTETRWQEDLFFSVGNMIPTINHTILFELLKSLEASGLFIQLLMALPTTICHAELERFLEHVTVDTSAEDVAFFLDVWWEVMKHKGHPQDPLLSQFSAMAHKYLPALDEFPHPPKRLRSDPDACPTMPLLAMLLRGLTQIQSRILGPGRKCCALANLADMLTVFALTEDDPQEVSATVYLDKLATVISVWNSDTQNPYHQQALAEKVKEAERDVSLTSLAKLPSETIFVGCEFLHHLLREWGEELQAVLRSSQGTSYDSYRLCDSLTSFSQNATLYLNRTSLSKEDRQVVSELAECVRDFLRKTSTVLKNRALEDITASIAMAVIQQKMDRHMEVCYIFASEKKWAFSDEWVACLGSNRALFRQPDLVLRLLETVIDVSTADRAIPESQIRQVIHLILECYADLSLPGKNKVLAGILRSWGRKGLSEKLLAYVEGFQEDLNTTFNQLTQSASEQGLAKAVASVARLVIVHPEVTVKKMCSLAVVNLGTHKFLAQILTAFPALRFVEEQGPNSSATFMVSCLKETVWMKFSTPKEEKQFLELLNCLMSPVKPQGIPVAALLEPDEVLKEFVLPFLRLDVEEVDLSLRIFIQTLEANACREEYWLQTCSPFPLLFSLCQLLDRFSKYWQLPKEKRCLSLDRKDLAIHILELLCEIVSANAETFSPDVWIKSLSWLHRKLEQLDWTVGLRLKSFFEGHFKCEVPATLFEICKLSEDEWTSQAHPGYGAGTGLLAWMECCCVSSGISERMLSLLVVDVGNPEEVRLFSKGFLVALVQVMPWCSPQEWQRLHQLTRRLLEKQLLHVPYSLEYIQFVPLLNLKPFAQELQLSVLFLRTFQFLCSHSCRDWLPLEGWNHVVKLLCGSLTRLLDSVRAIQAAGPWVQGPEQDLTQEALFVYTQVFCHALHIMAMLHPEVCEPLYVLALETLTCYETLSKTNPSVSSLLQRAHEQRFLKSIAEGIGPEERRQTLLQKMSSF
Difference (log2), PP1 vs untreated ([1]; log2 difference, pairwise comparison PP1 vs untreated, label-free quantification, 3 replicates each): 1.751
Difference (log2), untreated vs GFP (GFP-14-3-3β; log2 difference, pairwise comparison untreated vs GFP, label-free quantification, 3 replicates each): 0.9703

The next lines start with results.

Difference (log2), PP1 vs untreated ([1]; GFP-14-3-3β co-IP LC-MS/MS, PP1 vs untreated, student's t-test, label-free quantification, 3 replicates each): -0.1559 log2
B2: LIMA1 (protein, UniProt Q9UHB6 1-759, looked up)
LIM domain and actin-binding …: MESSPFNRRQWTSLSLRVTAKELSLVNKNKSSAIVEIFSKYQKAAEETNMEKKRSNTENLSQHFRKGTLTVLKKKWENPGLGAESHTDSLRNSSTEIRHRADHPPAEVTSHAASGAKADQEEQIHPRSRLRSPPEALVQGRYPHIKDGEDLKDHSTESKKMENCLGESRHEVEKSEISENTDASGKIEKYNVPLNRLKMMFEKGEPTQTKILRAQSRSASGRKISENSYSLDDLEIGPGQLSSSTFDSEKNESRRNLELPRLSETSIKDRMAKYQAAVSKQSSSTNYTNELKASGGEIKIHKMEQKENVPPGPEVCITHQEGEKISANENSLAVRSTPAEDDSRDSQVKSEVQQPVHPKPLSPDSRASSLSESSPPKAMKKFQAPARETCVECQKTVYPMERLLANQQVFHISCFRCSYCNNKLSLGTYASLHGRIYCKPHFNQLFKSKGNYDEGFGHRPHKDLWASKNENEEILERPAQLANARETPHSPGVEDAPIAKVGVLAASMEAKASSQQEKEDKPAETKKLRIAWPPPTELGSSGSALEEGIKMSKPKWPPEDEISKPEVPEDVDLDLKKLRRSSSLKERSRPFTVAASFQSTSVKSPKTVSPPIRKGWSMSEQSEESVGGRVAERKQVENAKASKKNGNVGKTTWQNKESKGETGKRSKEGHSLEMENENLVENGADSDEDDNSFLKQQSPQEPKSLNWSSFVDNTFAEEFTTQNQKSQDVELWEGEVVKELSVEEQIKRNRYYDEDEDEE
Difference (log2), untreated vs GFP (GFP-14-3-3β; GFP-14-3-3β co-IP LC-MS/MS, untreated vs GFP, student's t-test, label-free quantification, 3 replicates each): -0.3717 log2

Difference (log2), PP1 vs untreated [1, 2]: -0.131 log2
B3: MARS (protein, UniProt P56192 1-900, looked up)
Methionine--tRNA ligase, …: MRLFVSDGVPGCLPVLAAAGRARGRAEVLISTVGPEDCVVPFLTRPKVPVLQLDSGNYLFSTSAICRYFFLLSGWEQDDLTNQWLEWEATELQPALSAALYYLVVQGKKGEDVLGSVRRALTHIDHSLSRQNCPFLAGETESLADIVLWGALYPLLQDPAYLPEELSALHSWFQTLSTQEPCQRAAETVLKQQGVLALRPYLQKQPQPSPAEGRAVTNEPEEEELATLSEEEIAMAVTAWEKGLESLPPLRPQQNPVLPVAGERNVLITSALPYVNNVPHLGNIIGCVLSADVFARYSRLRQWNTLYLCGTDEYGTATETKALEEGLTPQEICDKYHIIHADIYRWFNISFDIFGRTTTPQQTKITQDIFQQLLKRGFVLQDTVEQLRCEHCARFLADRFVEGVCPFCGYEEARGDQCDKCGKLINAVELKKPQCKVCRSCPVVQSSQHLFLDLPKLEKRLEEWLGRTLPGSDWTPNAQFITRSWLRDGLKPRCITRDLKWGTPVPLEGFEDKVFYVWFDATIGYLSITANYTDQWERWWKNPEQVDLYQFMAKDNVPFHSLVFPCSALGAEDNYTLVSHLIATEYLNYEDGKFSKSRGVGVFGDMAQDTGIPADIWRFYLLYIRPEGQDSAFSWTDLLLKNNSELLNNLGNFINRAGMFVSKFFGGYVPEMVLTPDDQRLLAHVTLELQHYHQLLEKVRIRDALRSILTISRHGNQYIQVNEPWKRIKGSEADRQRAGTVTGLAVNIAALLSVMLQPYMPTVSATIQAQLQLPPPACSILLTNFLCTLPAGHQIGTVSPLFQKLENDQIESLRQRFGGGQAKTSPKPAVVETVTTAKPQQIQALMDEVTKQGNIVRELKAQKADKNEVAAEVAKLLDLKKQLAVAEGKPPEAPKGKKKK
Difference (log2), untreated vs GFP (GFP-14-3-3β; [3]): 0.1917 log2
